One test has as its target T1, rKv4.2 (Rattus norvegicus, UniProt Q63881).
T1 construct: expressed in transfected cells; host or cells: CHO cells, transient transfection with GFP co-transfected
T1 sequence (Q63881 1-630): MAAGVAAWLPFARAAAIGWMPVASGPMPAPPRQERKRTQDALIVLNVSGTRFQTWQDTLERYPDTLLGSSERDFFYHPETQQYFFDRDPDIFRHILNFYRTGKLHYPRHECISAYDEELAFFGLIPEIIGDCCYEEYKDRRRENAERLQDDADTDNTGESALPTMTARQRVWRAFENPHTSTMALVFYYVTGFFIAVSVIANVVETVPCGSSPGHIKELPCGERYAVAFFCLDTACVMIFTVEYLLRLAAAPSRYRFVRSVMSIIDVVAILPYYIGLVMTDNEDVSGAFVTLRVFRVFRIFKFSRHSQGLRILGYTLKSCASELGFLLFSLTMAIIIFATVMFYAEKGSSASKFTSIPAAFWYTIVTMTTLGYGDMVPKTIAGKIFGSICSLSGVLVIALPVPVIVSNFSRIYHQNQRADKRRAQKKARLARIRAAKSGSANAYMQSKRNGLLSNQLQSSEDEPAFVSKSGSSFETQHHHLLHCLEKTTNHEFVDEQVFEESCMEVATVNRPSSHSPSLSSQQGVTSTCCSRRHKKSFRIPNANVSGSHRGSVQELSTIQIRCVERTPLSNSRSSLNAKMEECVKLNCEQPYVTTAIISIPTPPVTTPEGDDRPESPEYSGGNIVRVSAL
Description: Patch-clamp of Kv4.2 currents in CHO cells coexpressing KChIPs. The note with it: for effects on Kv4.2 current density and kinetics: coexpressed with Kv4.2. The class given is cell-based. As for the experimental part: HEK 293 and CHO cells were used for recordings 1-3 days after a transient transfection. Whole-cell currents were recorded from cells expressing GFP, identified by their green fluorescence. […] After Gigaseal and ruptured whole-cell configuration access, resistance was less than 10 MOhms. Whole-cell bath solutions were made from a 10× Hank's balanced salt solution (GibcoBRL) with the following final concentration (in mM): 138 NaCl, 5.4 KCl, 1.3 MgCl2, 1.3 CaCl2, 5.5 D-Glukos and 10 HEPES, pH 7.4. The intracellular electrode solution consisted of (in mM) 140 KCl, 10 HEPES, 10 EGTA, 0.5 MgCl2, pH 7.3. All chemicals were from Sigma (St. Louis, Mo.) or Fisher Scientific (Houston, Tex.). Membrane currents were recorded using a EPC9 patch-clamp amplifier (HEKA, Germany). Data were analyzed using Matlab (Natick, Ma), and leak subtracted if necessary. All experiments were done at room temperature.
Because PCIPs, e.g., KChIP1 (1v), KChIP2 (9ql), and KChIP3 (p19), colocalize and coassociate with Kv4 α-subunits in brain, another critical question was to determine whether these PCIPs alter the conductance properties of Kv4 channels. To address this issue, Kv4.2 and Kv4.3 were expressed alone and in combination with individual PCIPs. CHO cells were transiently-transfected with cDNA using the DOTAP lipofection method as described by the manufacturer (Boehringer Mannheim, Inc.). Transfected cells were identified by cotransfecting enhanced GFP along with the genes of interest and subsequently determining if the cells contained green GFP fluorescence. Currents in CHO cells were measured using the patch-clamp technique (Hamill et al. 1981. Pfluegers Arch. 391: 85-100).
First, the amplitude of the Kv4.2 current increased approximately 7.5 fold in the presence of KChIP1 (amplitude of Kv4.2 alone=0.60+/−0.096 nA/cell; Kv4.2+KChIP1=4.5+/−0.55 nA/cell). […] Finally, the kinetics of Kv4.2 inactivation slowed considerably when Kv4.2 was coexpressed with KChIP1 (inactivation time constant of Kv4.2 alone=28.2+/−2.6 ms; Kv4.2+KChIP1=104.1+/−10.4 ms), while channels recovered from inactivation much more rapidly in cells expressing both Kv4.2 and KChIP1 (recovery tau=53.6+/−7.6 ms) versus cells expressing Kv4.2 alone (recovery tau=272.2+/−26.1 ms).
(In general: Patch clamp records ionic current or voltage across a cell membrane.)

The test system of another test is rKv4.3. Description: Two-electrode voltage clamp of Kv4.3 currents in Xenopus oocytes co-injected with KChIP cRNA. Particulars: Kv4.3 co-expressed with the KChIP. The class given is cell-based, rat. As for the experimental part: Frogs underwent no more than two surgeries and surgeries were performed by well established techniques. Frogs were anesthetized with ice. Total cRNA (1-10 ng) was injected into stage IV Xenopus oocytes that were harvested the previous day. The Xenopus oocytes were incubated in ND96 containing (in mM) 96 NaCl, 2 KCl, 1.8 CaCl2, 1 MgCl2, 5 HEPES, pH 7.6, plus (Gentamycin 50 μg/ml) at 18° C. Xenopus oocytes were studied 3-7 days after injection. The two-electrode voltage-clamp recordings were performed in ND96 solution using a TURBO TEC 03 Clamp Amplifier (ALA Scientific Instruments, Westbury, N.Y.). Both electrodes were filled with 3 M KCl and had electrode resistances ranging from 0.2-1 MOhm. The current signals were filtered at 1000 Hz before transferred on a PC (Gateway, Calif.) using the PULSE software (HEKA, Germany).
Chain of rKv4.3 (Q62897 1-487 limits assumed): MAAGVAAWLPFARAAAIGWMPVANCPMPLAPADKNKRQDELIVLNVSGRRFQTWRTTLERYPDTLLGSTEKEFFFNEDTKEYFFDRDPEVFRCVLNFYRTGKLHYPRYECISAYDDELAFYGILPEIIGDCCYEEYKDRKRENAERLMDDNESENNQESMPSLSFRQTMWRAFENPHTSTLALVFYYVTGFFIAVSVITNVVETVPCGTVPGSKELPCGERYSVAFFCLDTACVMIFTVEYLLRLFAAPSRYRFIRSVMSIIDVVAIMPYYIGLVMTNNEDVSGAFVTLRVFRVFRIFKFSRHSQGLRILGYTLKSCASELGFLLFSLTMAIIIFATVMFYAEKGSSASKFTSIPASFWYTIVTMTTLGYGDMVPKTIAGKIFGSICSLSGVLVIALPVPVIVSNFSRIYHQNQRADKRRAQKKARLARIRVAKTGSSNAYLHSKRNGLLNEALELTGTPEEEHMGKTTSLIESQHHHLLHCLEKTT
To investigate whether the modulatory effects of these KChIPs are specific for Kv4 channels, KChIP1 was coexpressed with Kv1.4 and Kv2.1 in Xenopus oocytes. Xenopus oocytes were injected with 1-3 ng/oocyte of cRNA which was prepared using standard in vitro transcription techniques (Sambrook et al. 1989. Molecular Cloning: a laboratory manual, Cold Spring Harbor Press). Currents in Xenopus oocytes were measured with a two-electrode voltage clamp. […] As a final control for the KChIP effects and to verify that the KChIPs' effects on Kv4 currents are independent of expression system, the above kinetic analyses were repeated after expressing Kv4.3 and KChIP mRNAs in Xenopus oocytes. The effects KChIP1 on for Kv4.3 in the Xenopus oocyte system were strikingly similar to those on Kv4.2 in CHO cells (Table 1).
In general terms: Two-electrode voltage clamp is typically applied to oocytes expressing channels or transporters.

For another test, the target named is T2, rKv4.3N (Rattus norvegicus, UniProt Q62897).
T2 construct: expressed in transfected cells; host or cells: yeast HF7c (bait), mated with Y187 (fish)
T2 sequence (Q62897 1-180): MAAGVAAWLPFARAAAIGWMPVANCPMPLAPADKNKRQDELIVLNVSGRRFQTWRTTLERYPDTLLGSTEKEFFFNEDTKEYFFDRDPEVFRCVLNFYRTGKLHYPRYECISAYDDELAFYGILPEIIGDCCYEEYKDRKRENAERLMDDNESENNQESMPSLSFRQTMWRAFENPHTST
Kind of test: Yeast two-hybrid binding and specificity test, Kv4.3 N-terminal bait. As for the experimental part:
The first 180 amino acids of rKv4.3 (described in Serdio P. et al. (1996) J. Neurophys 75:2174-2179) were amplified by PCR and cloned in frame into pGBT9 resulting in plasmid pFWA2, (hereinafter “bait”). This bait was transformed into the two-hybrid screening strain HF7c and tested for expression and self-activation. The bait was validated for expression by Western blotting.
Two-hybrid screens were carried out essentially as described in Bartel, P. et al. (1993) “Using the Two-Hybrid System to Detect Polypeptide-Polypeptide Interactions” in Cellular Interactions in Development: A Practical Approach, Hartley, D. A. ed. Oxford University Press, Oxford, pp. 153-179, with a bait-library pair of rkv4.3 bait-rat mid brain library. A filter disk beta-galactosidase (beta-gal) assay was performed essentially as previously described (Brill et al. (1994) Mol. Biol. Cell. 5:297-312). Clones that were positive for both reporter gene activity (His and beta-galactosidase) were scored and fish, plasmids were isolated from yeast, transformed into E. coli strain KC8, DNA plasmids were purified and the resulting plasmids were sequenced by conventional methods (Sanger F. et al. (1977) PNAS, 74: 5463-67).
Positive interactor clones were subjected to a binding specificity test where they were exposed to a panel of related and unrelated baits by a mating scheme previously described (Finley R. L. Jr. et al. (1994) PNAS, 91(26):12980-12984). Briefly, positive fish plasmids were transformed into Y187 and the panel of baits were transformed into HF7c. Transformed fish and bait cells were streaked out as stripes on selective medium plates, mated on YPAD plates, and tested for reporter gene activity.

The values that follow come from patent US7556938B1, “Nucleic acids encoding potassium channel interactors” (Millennium Pharmaceuticals, Inc., priority 1998, dated 2009).

B1: KChIP3: Potassium channel interacting protein KChIP3 (p19) (protein)
chain: MQRTKEAMKASDGSLLGDPGRIPLSKREGIKWQRPRFTRQALMRCCLIKWILSSAAPQGSDSSDSELELSTVRHQPEGLDQLQAQTKFTKKELQSLYRGFKNECPTGLVDEDTFKLIYSQFFPQGDATTYAHFLFNAFDADGNGAIHFEDFVVGLSILLRGTVHEKLKWAFNLYDINKDGYITKEEMLAIMKSIYDMMGRHTYPILREDAPLEHVERFFQKMDRNQDGVVTIDEFLETCQKDENIMSSMQLFENVI
As for B1, in the test with rKv4.2, the “effects on Kv4.2 current density and kinetics” value (“effects” below) is “strikingly similar to those produced by KChIP1”.

B2: KChIP2: Potassium channel interacting protein KChIP2 (9ql) (protein)
chain: MRGQGRKESLSESRDLDGSYDQLTGHPPGPSKKALKQRFLKLLPCCGPQALPSVSETLAAPASLRPHRPRPLDPDSVEDEFELSTVCHRPEGLEQLQEQTKFTRRELQVLYRGFKNECPSGIVNEENFKQIYSQFFPQGDSSNYATFLFNAFDTNHDGSVSFEDFVAGLSVILRGTIDDRLSWAFNLYDLNKDGCITKEEMLDIMKSIYDMMGKYTYPALREEAPREHVESFFQKMDRNKDGVVTIEEFIESCQQDENIMRSMQLFDNVI
In the case of B2, in the test with rKv4.2, the “effects” value is reported as “strikingly similar to those produced by KChIP1”.

B3: KChIP2m: KChIP2 splice variant m (protein)
chain: MRGQGRKESLSESRDLDGSYDQLTGHPPGPSKKALKQRFLKLLPCCGPQALPSVSENSVEDEFELSTVCHRPEGLEQLQEQTKFTRRELQVLYRGFKNECPSGIVNEENFKQIYSQFFPQGDSSNYATFLFNAFDTNHDGSVSFEDFVAGLSVILRGTIDDRLSWAFNLYDLNKDGCITKEEMLDIMKSIYDMMGKYTYPALREEAPREHVESFFQKMDRNKDGVVTIEEFIESCQQDENIMRSMQLFDNVI
Consider B3, for which, in the test on rKv4.3, the “Inactivation time constant (ms ± SEM)” value stood at 70 ± 2 ms and the “Peak amplitude (μA ± SEM)” value stood at 40 ± 4 μA. Moreover, the “binding to rKv4.3N in yeast two-hybrid assay” value in the test with rKv4.3N is listed as “able to bind to the Kv4.3 polypeptide”.

B4: KChIP1 ΔN2-31: N-terminal truncation mutant of KChIP1, reduced to the C-terminal 185 amino acid core sequence (protein)
chain: MLCSSLKLLHYLGLIDLSDDKIEDDLEMTMVCHRPEGLEQLEAQTNFTKRELQVLYRGFKNECPSGVVNEETFKQIYAQFFPHGDASTYAHYLFNAFDTTQTGSVKFEDFVTALSILLRGTVHEKLRWTFNLYDINKDGYINKEEMMDIVKAIYDMMGKYTYPVLKEDTPRQHVDVFFQKMDKNKD
In the case of B4, the “effects” value with rKv4.2 was “indistinguishable from the effects produced by full-length KChIP1 or KChIP2”. Moreover, the “Inactivation time constant (ms, at 50 mV)” value with rKv4.2 (rKv4.2 coexpressed with the KChIP, at 50 mV) is 129.2 ± 14.2 ms.

B5: 8t: 8t polypeptide, splice variant of 9q (protein)
chain: MNRCPRRCRSPLGQAARSLYQLVTGSLSPDSVDDEFELSTVCHRPEGLEQLQEQTKFTRKELQVLYRGFKNECPSGIVNEENFKQIYSQFFPQGDSSTYATFLFNAFDTNHDGSVSFEDFVAGLSVILRGTVDDRLNWAFNLYDLNKDGCITKEEMLDIMKSIYDMMGKYTYPALREEAPREHVESFFQKMDRNKDGVVTIEEFIESCQKDENIMRSMQLFDNVI
On to B5, for which, in the test with rKv4.3N, the “binding to rKv4.3N in yeast two-hybrid assay” value is reported as “able to bind to the Kv4.3 polypeptide”.
